Reference: article PMC9482650, “Quantitative fragmentomics allow affinity mapping of interactomes” (Nature Communications, 2022)

B1: ACOT8, O14734 (peptide)
chain: VKPQVSESKL
B2: CLDN2, P57739 (peptide)
chain: FNSYSLTGYV

The binders below were run against T1, DLG3_1, Q92796 (assay: holdup assay). Settings: plain residues with an end cap or a label only (N-terminal biotin on a linker: ado-ado).
T1 sequence (Q92796 125-227, limits assumed, looked up): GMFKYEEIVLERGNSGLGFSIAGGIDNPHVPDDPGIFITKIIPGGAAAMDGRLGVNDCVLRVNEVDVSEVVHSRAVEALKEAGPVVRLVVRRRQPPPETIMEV
Design: key: below the threshold = too weak to quantify, mostly under pKd 3.1 to 4
In the case of B1, the pKd is reported as “below the threshold”. In the case of B2, the pKd is reported as “below the threshold”.

Each binder was assayed against DLG4_1, P78352 (assay: holdup assay). Settings: plain residues with an end cap or a label only (N-terminal biotin on a linker: ado-ado).
Chain of DLG4_1, P78352 (P78352 62-152): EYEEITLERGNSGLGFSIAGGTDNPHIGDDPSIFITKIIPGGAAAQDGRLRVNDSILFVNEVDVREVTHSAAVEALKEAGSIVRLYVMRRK
Design: key: below the threshold = too weak to quantify, mostly under pKd 3.1 to 4
B1 was tested, and the pKd was “below the threshold”. B2 showed a pKd of 3.51.

These binders were tested against T2, GRIP1_3, Q9Y3R0 (assay: holdup assay). Settings: plain residues with an end cap or a label only (N-terminal biotin on a linker: ado-ado).
T2 sequence (Q9Y3R0 247-346, limits assumed, looked up): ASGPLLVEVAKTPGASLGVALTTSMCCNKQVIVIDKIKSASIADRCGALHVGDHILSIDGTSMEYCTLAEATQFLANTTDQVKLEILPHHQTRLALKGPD
Design: key: below the threshold = too weak to quantify, mostly under pKd 3.1 to 4
For B1, the pKd was “below the threshold”. B2 was tested, and the pKd was “below the threshold”.

These binders were tested against T3, APBA1_2, Q02410 (assay: holdup assay). Settings: plain residues with an end cap or a label only (N-terminal biotin on a linker: ado-ado).
T3 sequence (Q02410 742-832, limits assumed, looked up): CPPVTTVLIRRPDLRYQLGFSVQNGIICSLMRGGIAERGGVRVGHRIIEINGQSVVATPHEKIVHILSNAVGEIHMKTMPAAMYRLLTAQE
Design: key: below the threshold = too weak to quantify, mostly under pKd 3.1 to 4
With B1 the pKd was “below the threshold”. B2 showed a pKd of 4.

What follows are binders tested against MAGI1_1, Q96QZ7 (assay: holdup assay). Settings: plain residues with an end cap or a label only (N-terminal biotin on a linker: ado-ado).
Chain of MAGI1_1, Q96QZ7 (Q96QZ7 1-106): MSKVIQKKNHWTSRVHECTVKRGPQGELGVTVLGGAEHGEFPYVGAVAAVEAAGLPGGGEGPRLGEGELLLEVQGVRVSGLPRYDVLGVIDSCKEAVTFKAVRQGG
Design: key: below the threshold = too weak to quantify, mostly under pKd 3.1 to 4
For B1, the pKd was “below the threshold”. In the case of B2, the pKd is reported as “below the threshold”.

Each binder was assayed against T4, RHPN1, Q8TCX5 (assay: holdup assay). Settings: plain residues with an end cap or a label only (N-terminal biotin on a linker: ado-ado).
T4 sequence (Q8TCX5 508-602, limits assumed, looked up): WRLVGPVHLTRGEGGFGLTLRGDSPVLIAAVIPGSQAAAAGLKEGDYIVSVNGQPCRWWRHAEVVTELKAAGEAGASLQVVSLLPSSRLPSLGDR
Design: key: below the threshold = too weak to quantify, mostly under pKd 3.1 to 4
B1 gave a pKd of 4.07. In the case of B2, the pKd is reported as “below the threshold”.

Each binder was assayed against AHNAK1, Q09666 (assay: holdup assay). Settings: plain residues with an end cap or a label only (N-terminal biotin on a linker: ado-ado).
Chain of AHNAK1, Q09666 (Q09666 4-100): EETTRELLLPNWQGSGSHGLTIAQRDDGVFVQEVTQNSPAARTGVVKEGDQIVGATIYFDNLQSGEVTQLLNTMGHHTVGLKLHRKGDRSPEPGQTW
Design: key: below the threshold = too weak to quantify, mostly under pKd 3.1 to 4
B1 was tested, and the pKd was “below the threshold”. With B2 the pKd was “below the threshold”.

These binders were tested against GRIP2_4, Q9C0E4 (assay: holdup assay). Settings: plain residues with an end cap or a label only (N-terminal biotin on a linker: ado-ado).
Chain of GRIP2_4, Q9C0E4 (Q9C0E4 446-548): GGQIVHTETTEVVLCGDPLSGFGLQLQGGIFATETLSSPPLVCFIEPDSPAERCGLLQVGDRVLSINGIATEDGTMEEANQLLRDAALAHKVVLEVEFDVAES
Design: key: below the threshold = too weak to quantify, mostly under pKd 3.1 to 4
In the case of B1, the pKd is reported as “below the threshold”. For B2, the pKd was “below the threshold”.

The binders below were run against T5, SYNJ2BP, P57105 (assay: holdup assay). Settings: plain residues with an end cap or a label only (N-terminal biotin on a linker: ado-ado).
T5 sequence (P57105 8-110, limits assumed, looked up): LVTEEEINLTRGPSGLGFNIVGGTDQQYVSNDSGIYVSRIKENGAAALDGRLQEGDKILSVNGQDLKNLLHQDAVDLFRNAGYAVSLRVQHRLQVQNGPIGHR
Design: key: below the threshold = too weak to quantify, mostly under pKd 3.1 to 4
B1 showed a pKd of 3.75. Binder B2 has a pKd of 3.88.

What follows are binders tested against T6, DLG3_3, Q92796 (assay: holdup assay). Settings: plain residues with an end cap or a label only (N-terminal biotin on a linker: ado-ado).
T6 sequence (Q92796 374-475, limits assumed, looked up): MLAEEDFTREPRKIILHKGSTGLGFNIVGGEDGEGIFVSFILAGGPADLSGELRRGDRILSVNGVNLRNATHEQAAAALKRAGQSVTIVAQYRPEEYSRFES
Design: key: below the threshold = too weak to quantify, mostly under pKd 3.1 to 4
B1 was tested, and the pKd was “below the threshold”. With B2 the pKd was “below the threshold”.

What follows are binders tested against IL16_3, Q14005 (assay: holdup assay). Settings: plain residues with an end cap or a label only (N-terminal biotin on a linker: ado-ado).
Chain of IL16_3, Q14005 (Q14005 1107-1207): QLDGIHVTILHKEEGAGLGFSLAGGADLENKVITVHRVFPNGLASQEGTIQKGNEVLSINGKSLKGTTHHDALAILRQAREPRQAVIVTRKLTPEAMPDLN
Design: key: below the threshold = too weak to quantify, mostly under pKd 3.1 to 4
With B1 the pKd was “below the threshold”. For B2, the pKd was “below the threshold”.

What follows are binders tested against GRIP2_5, Q9C0E4 (assay: holdup assay). Settings: plain residues with an end cap or a label only (N-terminal biotin on a linker: ado-ado).
Chain of GRIP2_5, Q9C0E4 (Q9C0E4 544-642): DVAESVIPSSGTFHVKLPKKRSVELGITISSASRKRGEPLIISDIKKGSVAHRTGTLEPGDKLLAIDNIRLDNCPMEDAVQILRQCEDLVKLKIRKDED
Design: key: below the threshold = too weak to quantify, mostly under pKd 3.1 to 4
B1 was tested, and the pKd was “below the threshold”. B2 was tested, and the pKd was “below the threshold”.

Each binder was assayed against SNX27, Q96L92 (assay: holdup assay). Settings: plain residues with an end cap or a label only (N-terminal biotin on a linker: ado-ado).
Design: key: below the threshold = too weak to quantify, mostly under pKd 3.1 to 4
Binder B1 has a pKd of 5.34. Binder B2 has a pKd of 4.06.

What follows are binders tested against T7, TIAM2, Q8IVF5 (assay: holdup assay). Settings: plain residues with an end cap or a label only (N-terminal biotin on a linker: ado-ado).
T7 sequence (Q8IVF5 885-986, limits assumed, looked up): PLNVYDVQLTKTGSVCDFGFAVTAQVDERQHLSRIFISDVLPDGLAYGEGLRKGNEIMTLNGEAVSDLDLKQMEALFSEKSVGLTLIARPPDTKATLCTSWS
Design: key: below the threshold = too weak to quantify, mostly under pKd 3.1 to 4
With B1 the pKd was 4.03. With B2 the pKd was 3.94.

The binders below were run against T8, MPP2, Q14168 (assay: holdup assay). Settings: plain residues with an end cap or a label only (N-terminal biotin on a linker: ado-ado).
T8 sequence (Q14168 180-250, limits assumed, looked up): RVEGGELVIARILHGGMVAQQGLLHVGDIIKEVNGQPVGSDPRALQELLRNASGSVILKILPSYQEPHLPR
Design: key: below the threshold = too weak to quantify, mostly under pKd 3.1 to 4
B1 was tested, and the pKd was “below the threshold”. With B2 the pKd was “below the threshold”.

The binders below were run against T9, NHERF3_1, Q5T2W1 (assay: holdup assay). Settings: plain residues with an end cap or a label only (N-terminal biotin on a linker: ado-ado).
T9 sequence (Q5T2W1 4-100, limits assumed, looked up): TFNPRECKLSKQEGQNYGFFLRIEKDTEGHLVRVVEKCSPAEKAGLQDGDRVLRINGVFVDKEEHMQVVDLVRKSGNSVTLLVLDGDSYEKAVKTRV
Design: key: below the threshold = too weak to quantify, mostly under pKd 3.1 to 4
With B1 the pKd was 5.33. In the case of B2, the pKd is reported as 4.35.

These binders were tested against GRID2IP_2, A4D2P6 (assay: holdup assay). Settings: plain residues with an end cap or a label only (N-terminal biotin on a linker: ado-ado).
Chain of GRID2IP_2, A4D2P6 (A4D2P6 272-370): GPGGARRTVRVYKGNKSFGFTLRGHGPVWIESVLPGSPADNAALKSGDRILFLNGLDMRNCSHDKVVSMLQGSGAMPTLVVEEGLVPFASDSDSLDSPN
Design: key: below the threshold = too weak to quantify, mostly under pKd 3.1 to 4
With B1 the pKd was 3.55. With B2 the pKd was 3.68.

What follows are binders tested against FRMPD2_3, Q68DX3 (assay: holdup assay). Settings: plain residues with an end cap or a label only (N-terminal biotin on a linker: ado-ado).
Chain of FRMPD2_3, Q68DX3 (Q68DX3 1073-1166): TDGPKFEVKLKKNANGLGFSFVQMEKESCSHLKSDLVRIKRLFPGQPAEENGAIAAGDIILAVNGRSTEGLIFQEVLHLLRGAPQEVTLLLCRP
Design: key: below the threshold = too weak to quantify, mostly under pKd 3.1 to 4
With B1 the pKd was “below the threshold”. B2 gave a pKd of 4.28.

Each binder was assayed against PICK1, Q9NRD5 (assay: holdup assay). Settings: plain residues with an end cap or a label only (N-terminal biotin on a linker: ado-ado).
Chain of PICK1, Q9NRD5 (Q9NRD5 17-115): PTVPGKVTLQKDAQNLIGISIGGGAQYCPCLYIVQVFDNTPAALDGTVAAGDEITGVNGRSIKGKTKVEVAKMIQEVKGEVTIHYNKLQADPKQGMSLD
Design: key: below the threshold = too weak to quantify, mostly under pKd 3.1 to 4
B1 gave a pKd of 3.84. For B2, the pKd was 4.14.

What follows are binders tested against Inadl_8, Q8NI35 (assay: holdup assay). Settings: plain residues with an end cap or a label only (N-terminal biotin on a linker: ado-ado).
Chain of Inadl_8, Q8NI35 (Q8NI35 1425-1530): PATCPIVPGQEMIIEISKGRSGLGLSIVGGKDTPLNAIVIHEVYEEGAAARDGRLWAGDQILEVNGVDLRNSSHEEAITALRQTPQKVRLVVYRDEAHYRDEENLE
Design: key: below the threshold = too weak to quantify, mostly under pKd 3.1 to 4
For B1, the pKd was “below the threshold”. Binder B2 has a pKd of 4.27.

What follows are binders tested against T10, APBA1_1, Q02410 (assay: holdup assay). Settings: plain residues with an end cap or a label only (N-terminal biotin on a linker: ado-ado).
T10 sequence (Q02410 651-752, limits assumed, looked up): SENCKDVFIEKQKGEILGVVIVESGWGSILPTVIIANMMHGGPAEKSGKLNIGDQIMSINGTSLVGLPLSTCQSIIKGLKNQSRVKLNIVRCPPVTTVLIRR
Design: key: below the threshold = too weak to quantify, mostly under pKd 3.1 to 4
For B1, the pKd was “below the threshold”. With B2 the pKd was “below the threshold”.

What follows are binders tested against T11, LNX2_2, Q8N448 (assay: holdup assay). Settings: plain residues with an end cap or a label only (N-terminal biotin on a linker: ado-ado).
T11 sequence (Q8N448 334-432, limits assumed, looked up): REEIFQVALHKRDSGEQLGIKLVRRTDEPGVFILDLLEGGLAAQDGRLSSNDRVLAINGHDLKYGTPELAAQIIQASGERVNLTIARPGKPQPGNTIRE
Design: key: below the threshold = too weak to quantify, mostly under pKd 3.1 to 4
In the case of B1, the pKd is reported as “below the threshold”. B2 gave a pKd of 4.98.

What follows are binders tested against PDLIM1, O00151 (assay: holdup assay). Settings: plain residues with an end cap or a label only (N-terminal biotin on a linker: ado-ado).
Chain of PDLIM1, O00151 (O00151 1-87): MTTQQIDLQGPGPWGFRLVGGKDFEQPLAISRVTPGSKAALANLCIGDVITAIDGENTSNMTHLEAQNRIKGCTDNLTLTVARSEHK
Design: key: below the threshold = too weak to quantify, mostly under pKd 3.1 to 4
In the case of B1, the pKd is reported as “below the threshold”. In the case of B2, the pKd is reported as “below the threshold”.

What follows are binders tested against T12, GRIP1_5, Q9Y3R0 (assay: holdup assay). Settings: plain residues with an end cap or a label only (N-terminal biotin on a linker: ado-ado).
T12 sequence (Q9Y3R0 568-668, limits assumed, looked up): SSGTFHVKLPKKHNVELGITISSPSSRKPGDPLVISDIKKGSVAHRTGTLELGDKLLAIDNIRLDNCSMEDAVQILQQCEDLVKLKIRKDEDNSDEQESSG
Design: key: below the threshold = too weak to quantify, mostly under pKd 3.1 to 4
For B1, the pKd was “below the threshold”. In the case of B2, the pKd is reported as “below the threshold”.

The binders below were run against HTRA1, Q92743 (assay: holdup assay). Settings: plain residues with an end cap or a label only (N-terminal biotin on a linker: ado-ado).
Chain of HTRA1, Q92743 (Q92743 360-477): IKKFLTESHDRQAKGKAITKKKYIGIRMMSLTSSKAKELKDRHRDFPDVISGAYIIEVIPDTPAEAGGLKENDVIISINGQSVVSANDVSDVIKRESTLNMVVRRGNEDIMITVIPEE
Design: key: below the threshold = too weak to quantify, mostly under pKd 3.1 to 4
For B1, the pKd was “below the threshold”. B2 showed a pKd of 4.4.

Each binder was assayed against NOS1, P29475 (assay: holdup assay). Settings: plain residues with an end cap or a label only (N-terminal biotin on a linker: ado-ado).
Chain of NOS1, P29475 (P29475 9-101): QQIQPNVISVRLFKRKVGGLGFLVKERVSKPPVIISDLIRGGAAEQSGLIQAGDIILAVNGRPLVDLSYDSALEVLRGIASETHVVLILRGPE
Design: key: below the threshold = too weak to quantify, mostly under pKd 3.1 to 4
B1 was tested, and the pKd was “below the threshold”. B2 was tested, and the pKd was “below the threshold”.
